Data as given in US20170342119A1.

Biological target: IL-15 βγ receptors on 32Dβ cells (UniProt P14784)
Test: cell-based or functional assay

Chain of UniProt P14784 (P14784 27-551, chain 1 of 2): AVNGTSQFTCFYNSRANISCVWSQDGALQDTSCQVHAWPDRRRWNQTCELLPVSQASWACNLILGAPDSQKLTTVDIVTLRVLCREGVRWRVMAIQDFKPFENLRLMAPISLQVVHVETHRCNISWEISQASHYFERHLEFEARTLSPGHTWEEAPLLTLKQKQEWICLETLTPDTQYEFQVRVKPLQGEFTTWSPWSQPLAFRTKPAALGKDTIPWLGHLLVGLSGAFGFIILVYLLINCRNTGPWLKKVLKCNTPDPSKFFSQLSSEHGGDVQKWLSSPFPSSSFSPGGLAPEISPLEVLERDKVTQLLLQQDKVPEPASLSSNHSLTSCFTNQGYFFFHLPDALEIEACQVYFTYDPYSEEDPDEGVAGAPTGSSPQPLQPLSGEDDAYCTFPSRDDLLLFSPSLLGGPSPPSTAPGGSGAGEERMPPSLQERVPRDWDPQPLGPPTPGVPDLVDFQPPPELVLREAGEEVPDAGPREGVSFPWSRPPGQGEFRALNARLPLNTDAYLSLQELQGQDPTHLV
Chain of UniProt P14784 (P34902 23-369, chain 2 of 2, further chain): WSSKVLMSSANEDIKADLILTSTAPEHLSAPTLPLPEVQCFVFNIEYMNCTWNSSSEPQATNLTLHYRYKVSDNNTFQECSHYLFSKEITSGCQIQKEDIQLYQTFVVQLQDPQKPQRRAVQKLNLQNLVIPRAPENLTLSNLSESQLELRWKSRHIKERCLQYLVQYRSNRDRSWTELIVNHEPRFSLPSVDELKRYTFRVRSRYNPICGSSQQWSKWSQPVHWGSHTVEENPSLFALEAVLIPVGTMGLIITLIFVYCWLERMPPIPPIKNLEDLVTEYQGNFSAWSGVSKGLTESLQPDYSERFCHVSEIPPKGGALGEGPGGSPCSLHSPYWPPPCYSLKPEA

32Dβ cell proliferation (WST-1), EC50: 0.034 nM
Substance: IL-15 (from UniProt P40933 49-162) (ligand)
